Results on three compounds are retold here after patent US6300084A, “Anti-mitotic agent screening process” (The Regents of the University of California, priority 1999, dated 2001).

pKd: −log10 of the molar value.

In experiment [1] the test system is microtubules of wild-type strain DDY898. Description: Microtubule depolymerization by benomyl in yeast cells, immunofluorescence. Format: cell-based. The following applies: 20 μg/ml benomyl, two hours at 25° C. As for the experimental part: Yeast cells were grown to early log phase in minimal or rich medium. For galactose induction, cells were grown to log phase in medium containing either raffinose or glucose. Cells grown on glucose were washed twice with water and then diluted into medium containing galactose/raffinose. Galactose was added directly to medium containing raffinose. Fixation and immunofluorescence procedures were carried out as described by Drubin et al. (1988). The YOL134 anti-tubulin antibody was used at 1:200 and the anti-Duo1p antibody (preparation described below) at 1:2000. Fluorescein-conjugated anti-heavy chain secondary antisera were obtained from Cappel/Organon Teknika (Malvern, Pa.). To determine whether the localization of Duo1p was dependent on microtubules in vivo, microtubules of wild-type strain DDY898 were depolymerized by the addition of 20 μg/ml benomyl. […] With the elimination of microtubules, Duo1p staining also vanished.

Experiment [2] deals with bovine microtubules (assembled from bovine tubulin, stabilised with taxol) (bovine). The experiment in a line: co-sedimentation with microtubules; no increase with more microtubules.
Experiment [3] concerns the target yeast microtubules (yeast). The experiment is described as above.
Experiment [4] concerns the target bovine microtubules (assembled from bovine tubulin, stabilised with taxol) (bovine). The experiment in a line: co-sedimentation of in vitro translated Dam1p with taxol-stabilised bovine microtubules; half of Dam1p in the pellet at 5 µM microtubules.

For `CCCCNC(=O)n1c(NC(=O)OC)nc2ccccc21` [benomyl], the “depolymerization of microtubules (immunofluorescence)” value in experiment [1] is reported as “essentially all of the microtubules were depolymerized”. Take “GST-Duo1p fusion protein purified from yeast (pDD475)”: the percent of the protein bound to microtubules in experiment [2] and in experiment [3] was 9% throughout.

In general, pKd refers to the Kd on a negative log10 scale, so that one unit is a factor of ten. A low value points to a high Kd. With in vitro translated Dam1p, the pKd in experiment [4] is 5.30.
